These results are taken from patent US20240324599A1, “PESTICIDAL ENZYMES FOR USE ON NEMATODES, INSECTS, AND MOLLUSKS” (priority 2023, published 2024).

Holding throughout (type): in vivo
Assay [1] concerns soybean. The experiment in a line: Field trial: Geobacillus stearothermophilus esterase soybean seed treatment, yield. The note with it: text to Table 58; 0.5 fl oz/unit. An excerpt:
0.5 fl oz/unit of Esterase (carboxylesterase) from Geobacillus/Bacillus stearothermophilus (SEQ ID NO:252) was coated onto soybean seeds treated with Evergol Energy (prothioconazole, metalaxyl, and penflufen fungicides) at 1 fl oz/cwt, Alias 4F (imidacloprid, insecticide) at 1.25 fl oz/unit, Sensient Red (colorant) at 0.5 fl oz/cwt, and Seedwork 4037L polymer at 1.5 fl oz/cwt. A control treatment without esterase enzyme was also created. The seed treated with esterase and control seed was planted in replicated trials distributed across 6 replicated plots with 4 replicates of 60 ft2 each at each site.

Assay [2] deals with Garden snails (Cornu aspersum). The experiment in a line: Antifeedant and molluscicide bioassay (artificial diet): consumption, survival, weight gain. Conditions: n = 12, 12 days. How it is done:
Two-week old garden snails (Cornu aspersum) and full-size black gloss snails (Zonitoides nitidus) were maintained in a semi-darkened tank at 68-70° F. at high humidity, provided with a wet sponge in a petri dish. Snails were transferred to fresh tank every 2-3 days, and they were feed ad libitum with cucumber slices supplemented with calcium carbonate tablets. Individuals were reared in the laboratory for at least a week to fully acclimate to laboratory conditions prior to testing. The individuals ranged between 3 weeks to 2 months old at the time of bioassay.
Filter-sterilized recombinant enzymes including proteases and lipases were prepared as indicated in Example 25. Corresponding controls (e.g., buffer, fermentation of non-recombinant strain, water) were be prepared accordingly. Enzymes were dried by mixing them with Polyvinylpyrrolidone K30 (Thermo Sci Chem, Cat #227545000) at a ratio of 60 mg PVP per mL of enzymes, dispersed on a petri dish and allowed to dry in a bio-safety hood for 24-48 hours.
The treatments were prepared by mixing 0.4 g of dry enzyme and 1 gram of artificial diet mix. The artificial diet mix consisted of flour supplemented with 30 mg sucrose per gram of flour. Control diet contained 0.4 g of PVP and 1 g of artificial diet mix.
12 snails were randomly assigned to each treatment, labeled with permanent marker on the top of the shell for identification, and their weight (mg) was recorded before treatment. Then snails were transferred to dry plastic containers containing two petri dishes. Humidity was maintained with a folded and soaked light duty tissue paper in one petri dish. 1 g of treatment was provided as a thin layer on the other petri dish and was replaced every other day. At the time of treatment replacement, treatment consumption, weight, and mortality were recorded.

In assay [3] the test system is Fall armyworm (Spodoptera frugiperda). As to the kind of experiment: Diet-surface overlay (DSO) bioassay. The note with it: Table 46. How it is done: Diet-surface overlay bioassays are conducted with artificial diet mixes without antibiotics in 1.5 cm^2 cell bioassay trays(s). Artificial diets are commercially available from Southland Products Inc. Diets were prepared by dispersing 0.5 mL of molten diet to each 1.5 cm^2 cell. After solidification, 0.1 mL enzyme treatments were dispersed on top of diet in each cell and the tray was gently rocked in an orbital shaker to spread the liquid uniformly over the diet surface. Trays were placed under clean airflow until the surface of each cell was uniformly dried. One or two 16-cell sections were used per treatment (the number in larvae treated was 16 or 32).
One healthy first instar larva was placed into each treatment cell, each 16-cell section was covered with a re-sealable lid and incubated at 27° C. and light-dark period of 16:8 hrs. After 7 days, and according to the species, the number of individuals in the following developmental categories was recorded.
Negative/untreated controls were treated with filtered water and positive controls were treated with lethal doses of Bacillus thuringiensis subsp. Kurstaki (Btk) spores at 1000 ppm.

Assay [4] has as its system corn. The experiment in a line: Greenhouse trial: Rhizopus oryzae Esterase corn seed treatment, plant height. As for the experimental part:
Rhizopus oryzae Esterase (carboxylesterase, SEQ ID NO:253) was coated onto 6049 V2 hybrid corn seeds. A water only control treatment without esterase enzyme was also created. The seed treated with esterase and control seed was planted in replicated greenhouse trials on promix soil with a fluctuating day/night temperature of 78° F./75° F., and 13 hours of light daily. Plant heights were measured on day 10 for each plant emerged from the soil.

B1: Geobacillus stearothermophilus (a.k.a B. Stearothermophilus) Esterase (protein, listed as Bacillus stearothermophilus, listed as Geobacillus stearothermophilus)
chain: MKIVPPKPFFFEAGERAVLLLHGFTGNSADVRMLGRFLESKGYTCHAPIYKGHGVPPEELVHTGPDDWWQDVMNGYEFLKNKGYEKIAVAGLSLGGVFSLKLGYTVPIEGIVTMCAPMYIKSEETMYEGVLEYAREYKKREGKSEEQIEQEMEKFKQTPMKTLKALQELIADVRDHLDLIYAPTFVVQARHDEMINPDSANIIYNEIESPVKQIKWYEQSGHVITLDQEKDQLHEDIYAFLESLDW
As for B1, the “yield versus base seed treatment package, in words” value in assay [1] was “increased the yield”.

B2: PpII Lipase: free lipase from porcine pancreas Type II (PpII) (protein, UniProt P00591 1-450, looked up)
Pancreatic triacylglycerol …: SEVCFPRLGCFSDDAPWAGIVQRPLKILPWSPKDVDTRFLLYTNQNQNNYQELVADPSTITNSNFRMDRKTRFIIHGFIDKGEEDWLSNICKNLFKVESVNCICVDWKGGSRTGYTQASQNIRIVGAEVAYFVEVLKSSLGYSPSNVHVIGHSLGSHAAGEAGRRTNGTIERITGLDPAEPCFQGTPELVRLDPSDAKFVDVIHTDAAPIIPNLGFGMSQTVGHLDFFPNGGKQMPGCQKNILSQIVDIDGIWEGTRDFVACNHLRSYKYYADSILNPDGFAGFPCDSYNVFTANKCFPCPSEGCPQMGHYADRFPGKTNGVSQVFYLNTGDASNFARWRYKVSVTLSGKKVTGHILVSLFGNEGNSRQYEIYKGTLQPDNTHSDEFDSDVEVGDLQKVKFIWYNNNVINPTLPRVGASKITVERNDGKVYDFCSQETVREEVLLTLNPC
Consider B2, for which, in assay [2] (Table 62, lipases, garden snail, control diet 0), the “Dead Snails” value stood at 0. Moreover, in assay [2] (Table 62, lipases, garden snail, control diet 1.16), the Diet consumption worked out at 0.82 gr. For the same molecule, the “food consumption, in words” value in assay [2] (text to Table 62, lipases) is “consistent reduction in food consumption”. The “Dead Larva” value in assay [3] (individuals of n = 32 after 7 days, U/mL diet: Bc 3.8, Pf 5.2, PpII 0.4, Rm 2.8, Lipase nd, water 2) was determined as 0. Moreover, in assay [3] (n = 32, doses as E92, water 0), the “Larva Stage I” value worked out at 2, the “Larva Stage II” value was found to be 5 and the “Larva Stage III” value is 15. In assay [3] (n = 32, doses as E92, water 30), the “Larva Stage IV” value was 10.

B3: Rhizopus oryzae Esterase (protein, listed as Rhizopus oryzae)
chain: SDGGKVVAATTAQIQEFTKYAGIAATAYCRSVVPGNKWDCVQCQKWVPDGKIITTFTSLLSDTNGYVLRSDKQKTIYLVFRGTNSFRSAITDIVFNFSDYKPVKGAKVHAGFLSSYEQVVNDYFPVVQEQLTANPTYKVIVTGHSLGGAQALLAGMDLYQREPRLSPKNLSIFTVGGPRVGNPTFAYYVESTGIPFQRTAHKRDIVPHVPPQSFGFLHPGVESWIKSGTSNVQICTSEIETKDCSNSIVPFTSILDHLSYFDINEGSCL
modifications: Rhizopus cf. oryzae
Take B3: the “Height as % of Control” value in assay [4] (Table 60, corn seed treatment 0.5 fl oz/unit, plant height on day 10, water control 100%) is recorded as 103.7%. For the same molecule, the “growth rate of corn, in words” value in assay [4] (text to Table 60) is listed as “increase the growth rate”.
